From the supplement of paper PMC5998384

Experiments:
HeLa Kyoto [1] = test: solubility change mitosis vs G1/S (difference of NP-40 vs SDS log2 ratios) (log2 ratio difference); higher = more soluble in mitosis
HeLa Kyoto [2] = test: thermal stability score vs G1/S (z-score of summed log2 fold changes over temperatures); higher = more thermally stable than in G1/S
HeLa Kyoto [3] = test: solubility in G1/S (NP-40 vs SDS abundance) (log2 ratio); higher = more soluble; conditions: cell cycle stage: G1/S
HeLa Kyoto [4] = test: melting temperature (median over replicates), in situ; higher = more thermally stable
[5] = cell cycle stage: early G1 (4.5 h after nocodazole release)
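For melting temperature (median over replicates), in situ in this document: HeLa Kyoto cells synchronized by double thymidine or nocodazole block, proteins quantified by TMT10plex mass spectrometry, three independent biological replicates.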
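For solubility change mitosis vs G1/S (difference of NP-40 vs SDS log2 ratios) in this document: synchronized HeLa Kyoto cells (double thymidine block for G1/S, nocodazole release for mitosis), protein amounts in NP-40 versus SDS lysates quantified by mass spectrometry, three biological replicates.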
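For solubility in G1/S (NP-40 vs SDS abundance) in this document: HeLa Kyoto cells arrested at G1/S by double thymidine block, proteins quantified by TMT10plex mass spectrometry in mild NP-40 versus SDS extracts, three biological replicates.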
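For thermal stability score vs G1/S (z-score of summed log2 fold changes over temperatures) in this document: synchronized HeLa Kyoto cells, proteins quantified by TMT10plex mass spectrometry, three biological replicates, mitosis taken 0.5 h after nocodazole release, G1/S directly after double thymidine block.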

Chain of TAF6 (chain, as listed by the source): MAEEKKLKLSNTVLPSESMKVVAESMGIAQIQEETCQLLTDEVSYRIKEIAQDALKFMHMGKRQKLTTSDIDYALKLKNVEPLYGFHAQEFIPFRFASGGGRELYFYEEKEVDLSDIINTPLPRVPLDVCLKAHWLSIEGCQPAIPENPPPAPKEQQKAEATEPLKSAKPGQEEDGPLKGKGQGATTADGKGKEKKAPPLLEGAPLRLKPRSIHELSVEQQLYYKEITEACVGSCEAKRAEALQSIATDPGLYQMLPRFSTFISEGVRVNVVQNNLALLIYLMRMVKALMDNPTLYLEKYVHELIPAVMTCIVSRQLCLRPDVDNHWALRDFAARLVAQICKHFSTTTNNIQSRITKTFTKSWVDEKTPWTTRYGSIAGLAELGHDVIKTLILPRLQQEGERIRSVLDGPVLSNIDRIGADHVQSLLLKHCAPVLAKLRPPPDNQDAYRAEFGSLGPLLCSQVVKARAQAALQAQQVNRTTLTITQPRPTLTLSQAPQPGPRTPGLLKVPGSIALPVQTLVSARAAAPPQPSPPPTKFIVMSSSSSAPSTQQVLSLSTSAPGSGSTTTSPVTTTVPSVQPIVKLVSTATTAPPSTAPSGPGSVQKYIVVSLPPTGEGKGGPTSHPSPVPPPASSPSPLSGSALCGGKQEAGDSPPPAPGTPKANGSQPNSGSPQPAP
Chain of STAT2 (chain, as listed by the source): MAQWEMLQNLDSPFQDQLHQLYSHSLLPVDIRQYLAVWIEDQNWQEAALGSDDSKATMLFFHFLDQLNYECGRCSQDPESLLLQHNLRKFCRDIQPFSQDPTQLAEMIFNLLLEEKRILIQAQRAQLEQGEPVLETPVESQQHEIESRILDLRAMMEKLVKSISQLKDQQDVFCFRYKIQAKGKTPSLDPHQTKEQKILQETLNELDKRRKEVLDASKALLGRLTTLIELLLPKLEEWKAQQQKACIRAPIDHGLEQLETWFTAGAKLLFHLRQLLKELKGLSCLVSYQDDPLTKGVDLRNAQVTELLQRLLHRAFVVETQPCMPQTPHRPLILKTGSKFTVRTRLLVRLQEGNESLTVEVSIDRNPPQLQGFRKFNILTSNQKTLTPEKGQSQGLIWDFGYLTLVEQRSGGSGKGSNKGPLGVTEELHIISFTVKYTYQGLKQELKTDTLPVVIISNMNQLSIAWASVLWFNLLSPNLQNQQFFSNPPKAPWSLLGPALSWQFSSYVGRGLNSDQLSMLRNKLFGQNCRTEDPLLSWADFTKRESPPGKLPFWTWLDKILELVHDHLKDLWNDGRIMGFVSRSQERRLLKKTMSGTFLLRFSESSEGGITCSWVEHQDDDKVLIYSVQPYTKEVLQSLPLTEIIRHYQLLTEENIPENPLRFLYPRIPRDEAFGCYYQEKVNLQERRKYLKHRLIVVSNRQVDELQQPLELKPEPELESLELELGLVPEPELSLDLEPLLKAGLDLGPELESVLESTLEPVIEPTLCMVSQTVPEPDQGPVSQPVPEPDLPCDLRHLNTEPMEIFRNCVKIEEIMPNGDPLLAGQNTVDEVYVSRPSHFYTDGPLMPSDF
Chain of DENND4A (chain, as listed by the source): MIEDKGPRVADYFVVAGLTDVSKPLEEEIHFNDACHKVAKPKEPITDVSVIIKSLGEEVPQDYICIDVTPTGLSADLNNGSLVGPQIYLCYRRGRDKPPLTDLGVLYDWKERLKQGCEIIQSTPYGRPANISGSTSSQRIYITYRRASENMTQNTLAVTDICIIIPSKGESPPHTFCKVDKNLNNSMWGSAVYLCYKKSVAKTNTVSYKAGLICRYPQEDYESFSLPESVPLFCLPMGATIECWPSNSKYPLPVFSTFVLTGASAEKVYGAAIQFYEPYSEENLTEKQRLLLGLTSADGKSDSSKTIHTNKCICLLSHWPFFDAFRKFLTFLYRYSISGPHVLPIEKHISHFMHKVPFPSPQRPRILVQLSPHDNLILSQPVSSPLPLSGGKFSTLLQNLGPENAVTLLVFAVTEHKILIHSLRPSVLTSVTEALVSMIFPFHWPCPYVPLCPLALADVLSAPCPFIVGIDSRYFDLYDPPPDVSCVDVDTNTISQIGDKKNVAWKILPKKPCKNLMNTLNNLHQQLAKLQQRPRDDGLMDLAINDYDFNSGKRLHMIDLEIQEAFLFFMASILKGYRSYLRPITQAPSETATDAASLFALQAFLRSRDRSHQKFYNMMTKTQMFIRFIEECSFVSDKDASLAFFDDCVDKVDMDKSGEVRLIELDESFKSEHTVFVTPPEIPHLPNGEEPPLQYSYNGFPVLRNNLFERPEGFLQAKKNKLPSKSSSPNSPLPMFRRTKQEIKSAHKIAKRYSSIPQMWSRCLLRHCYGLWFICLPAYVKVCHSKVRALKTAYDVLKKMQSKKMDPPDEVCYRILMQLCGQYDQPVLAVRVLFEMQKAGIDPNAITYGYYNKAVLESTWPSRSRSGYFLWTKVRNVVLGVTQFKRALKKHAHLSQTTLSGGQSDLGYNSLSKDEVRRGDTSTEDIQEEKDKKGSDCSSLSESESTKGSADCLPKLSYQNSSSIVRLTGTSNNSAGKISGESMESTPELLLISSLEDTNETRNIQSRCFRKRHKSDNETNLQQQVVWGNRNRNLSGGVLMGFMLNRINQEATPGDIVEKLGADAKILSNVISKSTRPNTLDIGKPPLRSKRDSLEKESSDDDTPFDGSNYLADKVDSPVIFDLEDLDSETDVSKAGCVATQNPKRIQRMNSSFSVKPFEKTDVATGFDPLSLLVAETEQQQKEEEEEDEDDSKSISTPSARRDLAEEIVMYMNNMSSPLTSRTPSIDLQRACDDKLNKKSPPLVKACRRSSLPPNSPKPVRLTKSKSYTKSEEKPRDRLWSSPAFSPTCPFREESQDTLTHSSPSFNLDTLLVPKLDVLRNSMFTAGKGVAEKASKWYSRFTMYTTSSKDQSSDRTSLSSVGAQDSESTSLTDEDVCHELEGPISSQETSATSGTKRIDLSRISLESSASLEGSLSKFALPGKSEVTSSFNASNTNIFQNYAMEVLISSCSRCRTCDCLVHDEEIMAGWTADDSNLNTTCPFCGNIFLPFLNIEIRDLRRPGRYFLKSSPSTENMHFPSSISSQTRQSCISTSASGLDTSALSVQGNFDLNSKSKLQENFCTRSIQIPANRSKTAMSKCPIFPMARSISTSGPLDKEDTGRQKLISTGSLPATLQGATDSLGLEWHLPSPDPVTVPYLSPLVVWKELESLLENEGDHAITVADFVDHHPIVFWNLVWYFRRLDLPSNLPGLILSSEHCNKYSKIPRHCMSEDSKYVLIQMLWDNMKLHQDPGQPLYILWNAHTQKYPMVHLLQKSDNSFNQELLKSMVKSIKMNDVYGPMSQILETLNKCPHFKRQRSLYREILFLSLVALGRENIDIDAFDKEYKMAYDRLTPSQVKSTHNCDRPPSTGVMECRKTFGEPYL
Chain of DGKA (chain, as listed by the source): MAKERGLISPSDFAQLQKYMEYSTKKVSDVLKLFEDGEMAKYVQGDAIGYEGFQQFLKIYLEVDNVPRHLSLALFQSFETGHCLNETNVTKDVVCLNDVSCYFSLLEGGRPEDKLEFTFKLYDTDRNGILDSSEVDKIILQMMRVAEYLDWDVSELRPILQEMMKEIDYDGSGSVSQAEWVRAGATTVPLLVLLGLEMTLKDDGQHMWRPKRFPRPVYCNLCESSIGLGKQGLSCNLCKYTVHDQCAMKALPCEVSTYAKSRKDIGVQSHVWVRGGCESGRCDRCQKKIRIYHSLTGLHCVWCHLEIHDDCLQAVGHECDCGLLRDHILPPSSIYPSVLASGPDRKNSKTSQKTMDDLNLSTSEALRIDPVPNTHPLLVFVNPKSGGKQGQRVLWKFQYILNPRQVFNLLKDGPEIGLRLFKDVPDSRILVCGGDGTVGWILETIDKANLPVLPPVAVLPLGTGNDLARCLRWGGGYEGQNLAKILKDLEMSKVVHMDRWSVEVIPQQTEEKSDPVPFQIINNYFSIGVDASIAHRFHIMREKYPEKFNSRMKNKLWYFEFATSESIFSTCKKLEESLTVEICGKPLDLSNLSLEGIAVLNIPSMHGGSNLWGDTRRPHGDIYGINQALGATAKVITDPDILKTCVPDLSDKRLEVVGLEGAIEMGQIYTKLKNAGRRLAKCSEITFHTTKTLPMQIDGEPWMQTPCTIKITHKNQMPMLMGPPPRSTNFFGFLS

Substance	solubility change mitosis (log2) (HeLa Kyoto [1])	thermal stability score (HeLa Kyoto [2]; [5])	thermal stability score (HeLa Kyoto [2]; cell cycle stage: mitosis)	solubility in G1/S (log2) (HeLa Kyoto [3])	melting temperature (HeLa Kyoto [4]; cell cycle stage: G1/S) [°C]	melting temperature (HeLa Kyoto [4]; cell cycle stage: mitosis) [°C]
DENND4A	-0.246	-0.12	-0.608	0.0407		
DGKA	-0.157	0.0904	0.484	-0.0832		
ESPL1	-0.204	0.555	2.16	-0.00542		
LAMA3	0.0773	-0.604	-0.145	-0.331		
MSVHYTLNLRVFWPLVTGLCTALVCLYHVLRGSGGARAEPADGVDGGFPLLKVAVLLLLSYVLLRCRHAVRQRFLPGSPRLEGHAAFSSRHFREPGLSILLESYYEHEVRLSPHVLGHSKAHVSRIVGELVRAGRARGSPGLIPGGALALAFRGDFIQVGSAYEQHKIRRPDSFDVLVPLRLPPLVALEPRSLGEEPALAPAFRGCFLCALKAPPSPSGASGGHWLRDCKPFADAFCVDVRGRRHLSATLVLRWFQSHLQRSLATVRYSLEGRCRVTLTPGGLEQPPTLHILPCRTDYGCCRLSMAVRLIPAVHLGDGVFLVAPPPPPLPSAPLLELPEGLRAEALWGVNTARQEQKLLSWLQERAAPGACYLKCLQLLKALRDLGARGLDSAAATQWGRILSSYVLKTVLLAVLLRKGAPGQGWDEEHLGRCLEELVQFLRDCLLRRHTLFHCVLGPGGAAAEVGPLPKALREAAPVDLLAAFDGHARELAAARLLSTWQRLPQLLRAYGGPRYLARCPPPRSQRTQGFLEGEP [ITPRIPL2]	0.00884			-0.164	53.8	55.4
MSVQSSSGSLEGPPSWSQLSTSPTPGSAAAARSLLNHTPPSGRPREGAMDELHSLDPRRQELLEARFTGVASGSTGSTGSCSVGAKASTNNESSNHSFGSLGSLSDKESETPEKKQSESSRGRKRKAENQNESSQGKSIGGRGHKISDYFEYQGGNGSSPVRGIPPAIRSPQNSHSHSTPSSSVRPNSPSPTALAFGDHPIVQPKQLSFKIIQTDLTMLKLAALESNKIQDLEKKEGRIDDLLRANCDLRRQIDEQQKLLEKYKERLNKCISMSKKLLIEKSTQEKLSSREKSMQDRLRLGHFTTVRHGASFTEQWTDGFAFQNLVKQQEWVNQQREDIERQRKLLAKRKPPTANNSQAPSTNSEPKQRKNKAVNGAENDPFVRPNLPQLLTLAEYHEQEEIFKLRLGHLKKEEAEIQAELERLERVRNLHIRELKRINNEDNSQFKDHPTLNERYLLLHLLGRGGFSEVYKAFDLYEQRYAAVKIHQLNKSWRDEKKENYHKHACREYRIHKELDHPRIVKLYDYFSLDTDTFCTVLEYCEGNDLDFYLKQHKLMSEKEARSIVMQIVNALRYLNEIKPPIIHYDLKPGNILLVDGTACGEIKITDFGLSKIMDDDSYGVDGMDLTSQGAGTYWYLPPECFVVGKEPPKISNKVDVWSVGVIFFQCLYGRKPFGHNQSQQDILQENTILKATEVQFPVKPVVSSEAKAFIRRCLAYRKEDRFDVHQLANDPYLLPHMRRSNSSGNLHMAGLTASPTPPSSSIITY [TLK1]	-0.0453			0.061	50.1	53.3
MTGKSVKDVDRYQAVLANLLLEEDNKFCADCQSKGPRWASWNIGVFICIRCAGIHRNLGVHISRVKSVNLDQWTQEQIQCMQEMGNGKANRLYEAYLPETFRRPQIDPAVEGFIRDKYEKKKYMDRSLDINAFRKEKDDKWKRGSEPVPEKKLEPVVFEKVKMPQKKEDPQLPRKSSPKSTAPVMDLLGLDAPVACSIANSKTSNTLEKDLDLLASVPSPSSSGSRKVVGSMPTAGSAGSVPENLNLFPEPGSKSEEIGKKQLSKDSILSLYGSQTPQMPTQAMFMAPAQMAYPTAYPSFPGVTPPNSIMGSMMPPPVGMVAQPGASGMVAPMAMPAGYMGGMQASMMGVPNGMMTTQQAGYMAGMAAMPQTVYGVQPAQQLQWNLTQMTQQMAGMNFYGANGMMNYGQSMSGGNGQAANQTLSPQMWK [SMAP2]	-0.0647			0.111	48.3	49.6
MTLIEGVGDEVTVLFSVLACLLVLALAWVSTHTAEGGDPLPQPSGTPTPSQPSAAMAATDSMRGEAPGAETPSLRHRGQAAQPEPSTGFTATPPAPDSPQEPLVLRLKFLNDSEQVARAWPHDTIGSLKRTQFPGREQQVRLIYQGQLLGDDTQTLGSLHLPPNCVLHCHVSTRVGPPNPPCPPGSEPGPSGLEIGSLLLPLLLLLLLLLWYCQIQYRPFFPLTATLGLAGFTLLLSLLAFAMYRP [TMUB1]	0.143			0.566	51.6	52.5
MTNEEPLPKKVRLSETDFKVMARDELILRWKQYEAYVQALEGKYTDLNSNDVTGLRESEEKLKQQQQESARRENILVMRLATKEQEMQECTTQIQYLKQVQQPSVAQLRSTMVDPAINLFFLKMKGELEQTKDKLEQAQNELSAWKFTPDSQTGKKLMAKCRMLIQENQELGRQLSQGRIAQLEAELALQKKYSEELKSSQDELNDFIIQLDEEVEGMQSTILVLQQQLKETRQQLAQYQQQQSQASAPSTSRTTASEPVEQSEATSKDCSRLTNGPSNGSSSRQRTSGSGFHREGNTTEDDFPSSPGNGNKSSNSSEERTGRGGSGYVNQLSAGYESVDSPTGSENSLTHQSNDTDSSHDPQEEKAVSGKGNRTVGSRHVQNGLDSSVNVQGSVL [WTAP]	0.772			-0.0275	48.9	50.3
MTRGNQRELARQKNMKKQSDSVKGKRRDDGLSAAARKQRDSEIMQQKQKKANEKKEEPK [SERF2]	0.151			0.752	57.5	
MTSTGQDSTTTRQRRSRQNPQSPPQDSSVTSKRNIKKGAVPRSIPNLAEVKKKGKMKKLGQAMEEDLIVGLQGMDLNLEAEALAGTGLVLDEQLNEFHCLWDDSFPEGPERLHAIKEQLIQEGLLDRCVSFQARFAEKEELMLVHSLEYIDLMETTQYMNEGELRVLADTYDSVYLHPNSYSCACLASGSVLRLVDAVLGAEIRNGMAIIRPPGHHAQHSLMDGYCMFNHVAVAARYAQQKHRIRRVLIVDWDVHHGQGTQFTFDQDPSVLYFSIHRYEQGRFWPHLKASNWSTTGFGQGQGYTINVPWNQVGMRDADYIAAFLHVLLPVALEFQPQLVLVAAGFDALQGDPKGEMAATPAGFAQLTHLLMGLAGGKLILSLEGGYNLRALAEGVSASLHTLLGDPCPMLESPGAPCRSAQASVSCALEALEPFWEVLVRSTETVERDNMEEDNVEESEEEGPWEPPVLPILTWPVLQSRTGLVYDQNMMNHCNLWDSHHPEVPQRILRIMCRLEELGLAGRCLTLTPRPATEAELLTCHSAEYVGHLRATEKMKTRELHRESSNFDSIYICPSTFACAQLATGAACRLVEAVLSGEVLNGAAVVRPPGHHAEQDAACGFCFFNSVAVAARHAQTISGHALRILIVDWDVHHGNGTQHMFEDDPSVLYVSLHRYDHGTFFPMGDEGASSQIGRAAGTGFTVNVAWNGPRMGDADYLAAWHRLVLPIAYEFNPELVLVSAGFDAARGDPLGGCQVSPEGYAHLTHLLMGLASGRIILILEGGYNLTSISESMAACTRSLLGDPPPLLTLPRPPLSGALASITETIQVHRRYWRSLRVMKVEDREGPSSSKLVTKKAPQPAKPRLAERMTTREKKVLEAGMGKVTSASFGEESTPGQTNSETAVVALTQDQPSEAATGGATLAQTISEAAIGGAMLGQTTSEEAVGGATPDQTTSEETVGGAILDQTTSEDAVGGATLGQTTSEEAVGGATLAQTTSEAAMEGATLDQTTSEEAPGGTELIQTPLASSTDHQTPPTSPVQGTTPQISPSTLIGSLRTLELGSESQGASESQAPGEENLLGEAAGGQDMADSMLMQGSRGLTDQAIFYAVTPLPWCPHLVAVCPIPAAGLDVTQPCGDCGTIQENWVCLSCYQVYCGRYINGHMLQHHGNSGHPLVLSYIDLSAWCYYCQAYVHHQALLDVKNIAHQNKFGEDMPHPH [HDAC6]	-0.0591			-0.0107	50.5	52
MTTSSIRRQMKNIVNNYSEAEIKVREATSNDPWGPSSSLMTEIADLTYNVVAFSEIMSMVWKRLNDHGKNWRHVYKALTLLDYLIKTGSERVAQQCRENIFAIQTLKDFQYIDRDGKDQGINVREKSKQLVALLKDEERLKAERAQALKTKERMAQVATGMGSNQITFGRGSSQPNLSTSHSEQEYGKAGGSPASYHGSPEASLCPQHRTGAPLGQSEELQPLSQRHPFLPHLGLASRPNGDWSQPCLTCDRAARATSPRVSSELEQARPQTSGEEELQLQLALAMSREVAEQEERLRRGDDLRLQMALEESRRDTVKIPKKKEHGSLPQQTTLLDLMDALPSSGPAAQKAEPWGPSASTNQTNPWGGPAAPASTSDPWPSFGTKPAASIDPWGVPTGATVQSVPKNSDPWAASQQPASSAGKRASDAWGAVSTTKPVSVSGSFELFSNLNGTIKDDFSEFDNLRTSKKTAESVTSLPSQNNGTTSPDPFESQPLTVASSKPSSARKTPESFLGPNAALVNLDSLVTRPAPPAQSLNPFLAPGAPATSAPVNPFQVNQPQPLTLNQLRGSPVLGTSTSFGPGPGVESMAVASMTSAAPQPALGATGSSLTPLGPAMMNMVGSVGIPPSAAQATGTTNPFLL [EPN2]	-0.0178			0.656	54.9	54.6
MVAYWRQAGLSYIRYSQICAKAVRDALKTEFKANAEKTSGSNVKIVKVKKE [ATP5E]	0.368			-0.106	53.2	51.8
MVMYARKQQRLSDGCHDRRGDSQPYQALKYSSKSHPSSGDHRHEKMRDAGDPSPPNKMLRRSDSPENKYSDSTGHSKAKNVHTHRVRERDGGTSYSPQENSHNHSALHSSNSHSSNPSNNPSKTSDAPYDSADDWSEHISSSGKKYYYNCRTEVSQWEKPKEWLEREQRQKEANKMAVNSFPKDRDYRREVMQATATSGFASGMEDKHSSDASSLLPQNILSQTSRHNDRDYRLPRAETHSSSTPVQHPIKPVVHPTATPSTVPSSPFTLQSDHQPKKSFDANGASTLSKLPTPTSSVPAQKTERKESTSGDKPVSHSCTTPSTSSASGLNPTSAPPTSASAVPVSPVPQSPIPPLLQDPNLLRQLLPALQATLQLNNSNVDISKINEVLTAAVTQASLQSIIHKFLTAGPSAFNITSLISQAAQLSTQAQPSNQSPMSLTSDASSPRSYVSPRISTPQTNTVPIKPLISTPPVSSQPKVSTPVVKQGPVSQSATQQPVTADKQQGHEPVSPRSLQRSSSQRSPSPGPNHTSNSSNASNATVVPQNSSARSTCSLTPALAAHFSENLIKHVQGWPADHAEKQASRLREEAHNMGTIHMSEICTELKNLRSLVRVCEIQATLREQRILFLRQQIKELEKLKNQNSFMV [WAC]	0.139			0.525	46.5	49.9
MVNPGSSSQPPPVTAGSLSWKRCAGCGGKIADRFLLYAMDSYWHSRCLKCSCCQAQLGDIGTSCYTKSGMILCRNDYIRLFGNSGACSACGQSIPASELVMRAQGNVYHLKCFTCSTCRNRLVPGDRFHYINGSLFCEHDRPTALINGHLNSLQSNPLLPDQKVC [LMO4]	-0.0181			-0.938	52.8	
MWHSVGLTLLVFVATLLIVLLLMVCGWYFVWHLFLSKFKFLRELVGDTGSQEGDHEPSGSETEEDTSSSPHRIRSARQRRAPADEGHRPLT [SMIM13]	-0.138			-0.0724	55.5	
STAT2	-0.0626			-0.0132	49.1	50.9
TAF6	0.046			0.14	49.1	49.6
TATDN3	-0.0652			0.608	56.5	56.3
ZNF318	-0.0151			-0.136	46.2	49.2
